Measurements taken from a protein production outcome set (Wang et al. 2014).

Experiment: label from the status in PepcDB records

Sequence	protein production
MAEISHPPMEQLQDLEYCIDSNPPWPETVLLAFQNYILMLGTSAFIPALLVPAMGGSDGDRARVIQTLLFVAGIKTLLQALFGTRLPAVVGGSLAYVVPIAYIINDSSLQKISNDHERFIHTMRAIQGALIVASSIQIILGYSQVWGLFSRFFSPLGMAPVVGLVGLGMFQRGFPQLGNCIEIGLPMLLLVIGLTQYLKHVRPFKDVPIFERFPILICVTIVWIYAVILTASGAYRGKPSLTQHSCRTDKANLISTAPWFKFPYPLQWGPPTFSVGHSFAMMSAVLVSMVESTGAYIAASRLAIATPPPAYVLSRGIGWQGIGVLLDGLFGTGTGSTVLVENVGLLGLTRVGSRRVVQVSAGFMIVFSTLGKFGAVFASIPVPIYAALHCILFGLVAAVGLSFLQFTNMNSMRNLMITGLSLFLGISIPQFFAQYWDARHYGLVHTNAGWFNAFLNTLFMSPATVGLIIAVFMDNTMEVERSKKDRGMPWWVKFRTFRGDNRNEEFYTLPFNLNRFFPPT	failed
MAEKALATLKELAFLEDPSPVERDAAIQRFEYTFEAFWKALQAYLREKEGLEGASPKGVIRLAREVGLLRDEEARLALGMVDDRSLTVHTYNEPLARAIFRRLPDYARLMEQVLGRLRR	not failed
MAEKEKKTKKKKKKEKHQSSDISFKPSSDVKGLKFGGQIIVKSFTIRRARTFELLKLLSLPSSSSPPLLSTAAYLPTNFTILAHHAWHTLTLGLGTRKSKVVVFVFETEAMKSSVVAAEGGIWPSEIPLGDVNKKMIRKLKNWEMARFKFRKGCITFYVYAVRNAGNEGFAAAEDLKVILQAVVALKDFMDHTAMLVMPHQKSINYSSCPPFAMAH	failed
MAEKLLHTAESDAGIGSWVLHMESGRLEWSQAVHDIFGTDSATFDATEDAYFQRVHPDDRARVRRELDRHVLGDRPFDVEYRIVRPDGQVRELLERNHIQRQASGQVDHLWGTVIDMTEHKQLKRQLQLSQLAVEHCSEGIAIADEGLDWLYVNPALARMGGLTMADPSQLSGLFMAPGVEARLEREALRELLDASGAWQGELLLARRGAAPLPVLASATRLRDEDGRLLSVWVVSDISGMKESERRLHALAFFDGLTGLANRALFGERLRWHLQNEPAGGRLAILFLDLNGFKQVNDLLGHEAGDQVLREVARRLQAGCRPGELAARWGGDEFAVLLPGVADDAVLAARLRELREAARAERWGGGRWLRVSASLGAAVYPESAEDAERLIQLADRAMYRAKSEGGGQVWLHDGGGLRTLAGADCGA	failed
MAEKSNKLDHIGIAVTSIKDVLPFYVGSLKLKLLGMEDLPSQGVKIAFLEIGESKIELLEPLSEESPIAKFIQKRGEGIHHIAIGVKSIEERIQEVKENGVQMINDEPVPGARGAQVAFLHPRSARGVLYEFCEKKEQ	not failed
MAEKSQIPDNNNNTSSSAKKPTPEIGSGSGKRYYNPPESVNPDQATLREQWKFAIRQYSKWYSHAWGTAILAGGFFFGLGWIIKGSNPLPSLQSSSKPRDEEK	failed
MAELIHSTIGRLLEQTADAYPDRDAVVYPDRNIRYTYAQFDSLCRQTAKGLMRMGIGKGDHVAIWASNISEWLAVQFATAKIGAVLVTVNTNYQAHELDYLLKQSDAAALIIMDSYRGTSYPDIVNSLIPELQEAKPGQLKSERYPFLKTLIYIGNKRLSGMYHWDDTEILAKTVTDAELEERMNSLDKDNVINMQYTSGTTGFPKGVMLTHFNVINNAANIAECMALTSQDRMCIPVPFFHCFGCVLGVLACVSVGAAMIPVQEFDPVTVLKTVEKEKCTVLHGVPTMFIAELHHPDFDAYDLSTLRTGIMAGSPCPSEVMKAVIERMGMKDITIAYGQTEASPVITQTRANDSFIRRVETTGRALPHTEVKIVEPGTCQEVQRGMQGELCTRGYHVMKGYYKDKDATRKAINHDGWLFTGDLAVMDEDGYCRITGRLKDMLIRGGENIYPREIEEFLYQHPAVLDVQVVGVPDAKFGEEAAAWIKLKDGKSVSPDELKAYCKGKIARHKIPRYVIFTDDYPMTASGKIQKY	not failed
